Assay [1] has as its target T1, human GnRH receptor (human, UniProt P30968 1-328).
T1 construct: whole, on cells; Endogenous receptor; also called LHRH receptor; human pituitary GnRH receptor
T1 sequence (looked up): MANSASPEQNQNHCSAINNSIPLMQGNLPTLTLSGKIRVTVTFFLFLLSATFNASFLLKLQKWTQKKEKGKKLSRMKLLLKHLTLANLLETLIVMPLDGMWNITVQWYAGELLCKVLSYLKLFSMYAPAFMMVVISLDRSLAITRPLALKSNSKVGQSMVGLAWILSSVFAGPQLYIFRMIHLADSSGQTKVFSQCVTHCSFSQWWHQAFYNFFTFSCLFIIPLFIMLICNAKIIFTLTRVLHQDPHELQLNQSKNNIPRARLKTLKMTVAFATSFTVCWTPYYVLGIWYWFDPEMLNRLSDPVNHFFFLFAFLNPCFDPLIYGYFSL
The assay can be described thus: cell-based or functional assay.

Assay [2] has as its target T2, rat GnRH receptor (rat pituitaries) (rat, UniProt P30969 1-327).
T2 construct: whole, on cells; Endogenous receptor of rat pituitary tissue, used as the control preparation
T2 sequence (looked up): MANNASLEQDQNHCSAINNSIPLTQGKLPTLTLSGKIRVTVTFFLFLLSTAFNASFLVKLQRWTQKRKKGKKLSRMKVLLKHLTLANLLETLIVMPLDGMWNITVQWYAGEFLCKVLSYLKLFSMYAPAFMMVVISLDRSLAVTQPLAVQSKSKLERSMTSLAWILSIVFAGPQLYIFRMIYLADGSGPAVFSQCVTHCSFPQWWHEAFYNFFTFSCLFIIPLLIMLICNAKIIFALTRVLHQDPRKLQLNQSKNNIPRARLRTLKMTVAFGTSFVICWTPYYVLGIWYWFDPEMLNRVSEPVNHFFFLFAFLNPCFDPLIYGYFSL
The assay can be described thus: radioligand binding, displacement curves, rat pituitaries (control).

In assay [3] the target is T1, human GnRH receptor. Kind of assay: radioligand binding, displacement curves, ME15392 human melanoma cell membranes.
Assay [4] addresses T1, human GnRH receptor. Kind of assay: radioligand binding, displacement curves, BLM human melanoma cell membranes.

Numbered stars: 1 amine (or outer) side, 2 acyl side, 3 side chain; on linkers, the order of the positions; unused ones are H or OH. Square brackets hold non-standard residues; d marks the D form. dSer(tBu) = CC(C)(C)OC[C@@H](N[*:1])C(=O)[*:2]; pGlu = O=C1CC[C@@H](C(=O)O)N1; azaGly = NNC(=O)O

“Antide, a LHRH antagonist (Sigma Chemical Co., No. A8802) (peptide)”: in the assay with human GnRH receptor [1], the inhibition of MV3 melanoma cell proliferation at 10^-4 M is 15%, the inhibition of MV3 melanoma cell proliferation at 10^-5 M amounted to 35% and the stimulation of MV3 melanoma cell growth at 10^-6 M was found to be 40%.
As for GnRH antagonist Cetrorelix (peptide), in the assay with human GnRH receptor [1], the decrease of U-87MG cell proliferation at 10^-6 M turned out to be 28% and the inhibition of U-87MG cell proliferation at 10^-5 M was 30%.
Consider “Triptorelin, an LHRH agonist (Sigma Chemical Co., No. L9761) (peptide)”, for which, in the assay with human GnRH receptor [1], the inhibition of MV3 melanoma cell proliferation at 10^-4 M, 10^-5 M and 10^-6 M, from day 4 on is 15%.

B1: GnRH agonist LHRH-A, ZOLADEX [D-Ser(tBu)^6Aza-Gly-LHRH] (peptide)
peptide: [pGlu]HWSY[dSer(tBu)]LRP[azaGly]-NH2
modifications: also: 125I-labelled tracer form, position not given here
notes: the unlabelled form was used in the cell assays; also called Goserelin
As for B1, the Kd (usually the constant that tells how readily two partners part at equilibrium) in assay [2] was in the range of 1500 to 2000 pM; in the assay with human GnRH receptor [3] it was 100 to 600 pM; in the assay with human GnRH receptor [4], 700 to 1100 pM.

The values are drawn from US20120238494A1 (published 2012).
